Where a chain is given by its changes, count along the chain named.
T1: biotinylated hOX40L (R&D Systems, biotinylated in house) (human, UniProt P23510 51-183, biotinylated with Sulfo-NHS-LC-Biotin, sites not stated)
T1 construct: same bought protein as m10, biotinylated; also called biotinylated OX40L
T1 sequence: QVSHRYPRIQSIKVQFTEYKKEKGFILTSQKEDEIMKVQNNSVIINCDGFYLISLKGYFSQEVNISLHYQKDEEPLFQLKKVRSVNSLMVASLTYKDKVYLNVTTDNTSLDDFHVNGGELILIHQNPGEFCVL

T2: recombinant human OX40L (extracellular domain, R&D Systems) (human, UniProt P23510 51-183)
T2 construct: also called hOX40L; rec. hOX40L
T2 sequence: T1 sequence

T3: full length human OX40L expressed on CHO cells (human, UniProt P23510 1-183)
T3 construct: CHO K1 stably transfected as described for CAKI cells; also called CHO-hOX40L; hOX40L expressing CHO cells
T3 sequence: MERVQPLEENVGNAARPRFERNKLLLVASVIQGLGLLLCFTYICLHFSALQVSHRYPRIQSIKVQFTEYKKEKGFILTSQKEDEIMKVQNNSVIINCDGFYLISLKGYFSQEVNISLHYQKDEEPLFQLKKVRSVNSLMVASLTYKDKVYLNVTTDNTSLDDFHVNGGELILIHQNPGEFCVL

T4: cynomolgus OX40L expressed on CHO cells (cynomolgus monkey, UniProt P23510 1-183 (human entry))
T4 construct: also called cynoOX40L; CHO-cynoOX40L
T4 chain: T3 sequence with R55Q, K73E

B1: OX40L01B11 (VHH)
VHH: EVQLVESGGGLVQAGGSLRLSCVASGRSFSTYIMGWFRQAPGKEREFVATISRSGITTRSADSVKGRFTISRDNAKNTVYLQMNSLKPEDTAVYYCAAGPYVEQTLGLYQTLGPWDYWGQGTQVTVSS
notes: monovalent Nanobody from E. coli; not shown: C-terminal c-myc and His6 tag
B2: OX40L15B07 (VHH)
VHH: EVQLVESGGGLVQAGGSLRLSCAASRSIGRLDRMGWYRHRTGEPRELVATITGGSSINYGDFVKGRFTISIDNAKNTVYLQMNNLKPEDTAVYYCNFNKYVTSRDTWGQGTQVTVSS
notes: as for B1
B3: OX40L01E07 (VHH)
VHH: EVQLVESGGGLVQAGGSLRLSCAASGRTFSSIYAKGWFRQAPGKEREFVAAISRSGRSTSYADSVKGRFTISRDNAKNTVYLQMNSLKPEDTAVYYCAAVGGATTVTASEWDYWGLGTQVTVSS
notes: as for B1

Legend:
[1] = molecular target: T1, biotinylated hOX40L (R&D Systems, …); assay: hOX40L/hOX40 AlphaScreen, sample heated 1 min at Tm+10 C
Experimental: (§1) Next, streptavidin donor beads were added and incubated for an additional 1 hour. Fluorescence was measured by reading plates on the EnVision Multilabel Plate Reader using an excitation wavelength of 680 nm and an emission wavelength of 520 nm.
In the TSA assay, Nanobodies were diluted to a concentration of 0.2 mg/ml and melting temperature (Tm) was determined at different pH by stepwise increase in temperature in presence of Sypro Orange, a dye that binds to […] residues that become exposed upon unfolding of the protein, using the Lightcycler (Roche) for detection. […] In SEC analysis, the Nanobodies were analyzed on a Phenomenex matrix to allow detection of multimers, aggregates or ‘stickyness’.

[2] = molecular target: T1, biotinylated hOX40L (R&D Systems, …); assay: AlphaScreen, 120 pM biotinylated hOX40L + 0.2 nM hOX40/Fc
Experimental: as §1

[3] = molecular target: T2, recombinant human OX40L (extracellular …); assay: SPR, second injection after competitor OX40L18E09
Experimental: (§2) In addition, it was investigated to what extend the 7 anti-OX40L Nanobodies have a different or identical or overlapping epitope. Standard conditions were as described above. […] 1300 RU. A dual injection was performed at 10 μl/min for 2 min, starting with 500 nM of the first Nanobody, followed by 500 nM of the second Nanobody. After 10 min dissociation, regeneration of the surface was performed by injection of 50 mM NaOH for 5-20 sec at 100 μl/min.

[4] = molecular target: T2, recombinant human OX40L (extracellular …); assay: SPR, after second injection of buffer HBS-EP+
Experimental: as §2

[5] = molecular target: T1, biotinylated hOX40L (R&D Systems, …); assay: AlphaScreen, 31 pM biotinylated hOX40L + 80 pM OX40/Fc
Experimental: as §1

[6] = molecular target: T3, full length human OX40L expressed on …; assay: FACS binding to CHO cells, anti-c-myc detection
Experimental: (§3) Transfection of CHO K1 with the respective expression plasmid DNA and selection of clones with high expression levels was performed as described in Example 1. Binding of the Nanobodies to the cell surface expressed OX40L was assessed by FACS analysis of cells as described below.
(§4) After washing bound Nanobodies were detected in FACSArray™ using mouse anti-c-myc and PE conjugated goat anti-mouse IgG.

[7] = molecular target: T4, cynomolgus OX40L expressed on CHO cells; assay: FACS binding to CHO cells, anti-c-myc detection
Experimental: as §3, §4

[8] = molecular target: T2, recombinant human OX40L (extracellular …); assay: SPR, second injection after competitor OX40L19A07
Experimental: as §2

[9] = molecular target: T2, recombinant human OX40L (extracellular …); assay: SPR, second injection after competitor OX40L01B11
Experimental: as §2

[10] = molecular target: T2, recombinant human OX40L (extracellular …); assay: SPR, second injection after competitor OX40L19D08
Experimental: as §2

[11] = molecular target: T3, full length human OX40L expressed on …; assay: cell-based or functional assay
[12] = molecular target: T3, full length human OX40L expressed on …; assay: competition FACS with hOX40/Fc on CHO-hOX40L
Experimental: The competition FACS assay was performed as described in example 2.

[13] = molecular target: T2, recombinant human OX40L (extracellular …); assay: SPR, second injection after competitor OX40L01E10
Experimental: as §2

[14] = molecular target: T2, recombinant human OX40L (extracellular …); assay: SPR, second injection after competitor OX40L15B07
Experimental: as §2

[15] = molecular target: T2, recombinant human OX40L (extracellular …); assay: SPR, second injection after competitor OX40L01E07
Experimental: as §2

[16] = molecular target: T3, full length human OX40L expressed on …; assay: competition FACS, 3.1 nM hOX40/Fc on hOX40L expressing cells

| Binder | IC50 [2] [nM] | Binding Level sample 2 (RU) [3] [RU] | Binding Level sample 2 - sample 1 (RU) [3] [RU] | Binding Level sample 2 (RU) [4] [RU] | Binding Level sample 2 - sample 1 (RU) [4] [RU] | IC50 [5] [nM] | EC50 [6] [nM] | EC50 [7] [nM] | Binding Level sample 2 (RU) [8] [RU] | Binding Level sample 2 - sample 1 (RU) [8] [RU] | Binding Level sample 2 (RU) [9] [RU] | Binding Level sample 2 - sample 1 (RU) [9] [RU] | Binding Level sample 2 (RU) [10] [RU] | Binding Level sample 2 - sample 1 (RU) [10] [RU] | IC50, IL4 production, T-cell activation assay, donor 1 [11] [nM] | IC50, IL4 production, T-cell activation assay, donor 2 [11] [nM] | IC50, IL4 production, T-cell activation assay, donor 3 [11] [nM] | IC50 [12] [nM] | Binding Level sample 2 (RU) [13] [RU] | Binding Level sample 2 - sample 1 (RU) [13] [RU] | also measured |
| --- | --- | --- | --- | --- | --- | --- | --- | --- | --- | --- | --- | --- | --- | --- | --- | --- | --- | --- | --- | --- | --- |
| B1 | 0.375 | 238 | 48 | 383 | -57 | 0.278 | 2.94 | 3.39 | 358 | 180 | 380 | 7 | 433 | 205 | 230 | 188 | 80 | 5 | 296 | 76 | IC50 [1]: 0.6 nM; IC50, IL4 production, T-cell activation assay, donor 4 [11]: 220 nM; Binding Level sample 2 (RU) [14]: 259 RU; Binding Level sample 2 - sample 1 (RU) [14]: 61 RU; Binding Level sample 2 (RU) [15]: 399 RU; Binding Level sample 2 - sample 1 (RU) [15]: 205 RU; IC50 [16]: 5.61 nM |
| B2 | 0.3 | 189 | 2 | 155 | -40 | 0.125 | 2.43 | 3.23 | 200 | 26 | 324 | -9 | 217 | -7 | 236 | 249 | 73 | 2 | 237 | 17 | Binding Level sample 2 (RU) [14]: 198 RU; Binding Level sample 2 - sample 1 (RU) [14]: 5 RU; Binding Level sample 2 (RU) [15]: 198 RU; Binding Level sample 2 - sample 1 (RU) [15]: 12 RU; IC50 [16]: 1.61 nM |
| B3 | 0.423 | 238 | 45 | 212 | -9 | 0.229 | 4.03 | 4.9 | 240 | 63 | 486 | 194 | 252 | 23 | 260 | 320 | 125 | 11 | 289 | 62 | IC50 [1]: 0.1 nM; IC50, IL4 production, T-cell activation assay, donor 4 [11]: 169 nM; Binding Level sample 2 (RU) [14]: 252 RU; Binding Level sample 2 - sample 1 (RU) [14]: 55 RU; Binding Level sample 2 (RU) [15]: 192 RU; Binding Level sample 2 - sample 1 (RU) [15]: 11 RU; IC50 [16]: 8.89 nM |
